# Test: soluble on expression in E. coli; label from the status in PepcDB or PDB records
row,Sequence,soluble on expression in E. coli
1,GSRAQSSPAAPASLSAPEPASQARVLSSSETPARTLPFTTGLIYDSVMLKHQCSCGDNSRHPEHAGRIQSIWSRLQERGLRSQCECLRGRKASLEELQSVHSERHVLLYGTNPLSRLKLDNGKLAGLLAQRMFVMLPCGGVGVDTDTIWNELHSSNAARWAAGSVTDLAFKVASRELKNGFAVVRPPGHHADHSTAMGFCFFNSVAIACRQLQQQSKASKILIVDWDVHHGNGTQQTFYQDPSVLYISLHRHDDGNFFPGSGAVDEVGAGSGEGFNVNVAWAGGLDPPMGDPEYLAAFRIVVMPIAREFSPDLVLVSAGFDAAEGHPAPLGGYHVSAKCFGYMTQQLMNLAGGAVVLALEGGHDLTAICDASEACVAALLGNRVDPLSEEGWKQKPNLNAIRSLEAVIRVHSKYWGCMQRLAS,soluble
2,MKKPVIGITGNEKTHPDDDIMMSYAAKGFVEGVKDAGGIPIILPIGDQEMACHYISLIDKLILTGGQNVDPKFYGEPKTIDSDDYHLQRDIFELALIKEAIKQKKPIFSVCRGTQLFNVAMGGTLYQDIEDHWQDSSVEYTTQRLVTEPDTVLQEIYGEISHINSFHHQSIKDLAPNLKVVAHDPKDGIIEAVMSTDDVAFLGVQWHPELLFENRPKDKKLFDYVVNEL,not soluble
3,MRVVALVPGGIGDQILFFPTLDDLKRYYPNAQLDVVVEPRSKAAYRVSKSVNDILTFDYKDRNSLADWGNLVGTIRDREYDVVITVGQSWLVGLFLWLTGIPTRIGYQGKGRSFLTKTVPFKPSQYAAAVYHDLLAPIGITTPTPELAVNVPKPDIDWANSEQKRLGVNETGYVLIYGGSSWVSQPQALETIYPAENWQEIIQDFRQKQPDLPVVVIQGPDDEQFVRSLRDYSLDIKVTSPDNVGKLTAMIAGANLMLTTDSAPLHLSVAVQTYTIALFGSTDPVKLLPNSDKLLGIKSSTGRVADILPKAVLEKVWGGLEHHHHHH,not soluble
4,MKNYPVKKNDVIEVEIIDLTHEGLGVAKVDHYPLFIENALPGEKLEIKVLKTGKSFGYGKVLTVLKSSEQRVPVKDENFTKVGISPLQHLAYGAQLSFKTQQVENVMQRVAKLQEVPVLPTIGMNDPWHYRNKAQIPVRKIDNQLQTGFFRKNSHDLIPMEHFYIQDPEIDAAIVKIRDIMRKYSVKPYNESDNTGNLRHIVVRRGYHTGEMMVVLITRTPKLFPISKIVPDILEAIPEVVSIVQNVNPKRTNVIFGDETILLHGSEKITDTIFDLKFEISARSFYQVNPQQTEVMYQKVKEYAALTGNEIVVDAYCGIGTIGLTLAQDAKQVYGIEVIEEAVKDAENNAKLNNIENATFTAGLAEELLPKLVENGLQPDVVVVDPPRKGLDGQLVNTLIETQPERIVYVSCNPATLARDIALLTEGGYEAKEIQPVDNFPQTTHIESVTLLTKAVD,not soluble
5,ADVTITVNGKVVAKPCTVSTTNATVDLGDLYSFSLMSAGAASAWHDVALELTNCPVGTSRVTASFSGAADSTGYYKNQGTAQNIQLELQDDSGNTLNTGATKTVQVDDSSQSAHFPLQVRALTVNGGATQGTIQAVISITYTYS,soluble
6,MPNYKLLYFDARALAEPIRIMFAMLNVPYEDYRVSVEEWSKLKPTTPFGQLPILQVDGEQFGQSMSITRYLARKFGLAGKTAEEEAYADSIVDQYRDFIFFFRQFTSSVFYGSDADHINKVRFEVVEPARDDFLAIINKFLAKSKSGFLVGDSLTWADIVIADNLTSLLKNGFLDFNKEKKLEEFYNKIHSIPEIKNYVATRKDSIV,not soluble
7,SAQEKMELDLELPPGTGGSPAEGGGSGGGGGLRRSNSAPLIHGLSDTSPVFQAEAPSARRNSTTFPSRHGLLLPASPVRMHSSRLHQIKQEEGMDLINRETVHEREVQTAMQISHSWEESFSLSDNDVEKSASPKRIDFIPVSPAPSPTRGIGKQCFSPSLQSFVSSNGLPPSPIPSPTTRFTTRRSQSPINCIRPSVLGPLKRKCEMETEYQPKRFFQGITNMLSSDVAQLSDPGVCVSSDTLDGNSSSAGSSCNSPAKVSTTTDSPVSPAQAASPFIPLDELSSK,soluble
8,MGSDKIHHHHHHMNETSSYTIEEVAGLLKVSKLTVYDLIKKGVLPAYRVGRQMRVDEEDLKQYKTNMRMSQPIAAKEAPKQVQEAEPDGRPNVMISGQDISMDILSKHLENAIQETPLRKYKGSLNSLIDMYQGKCDIVSLHLYDAETGQYNAPYVKRILTGEPFCLINVVLRKAGLYVQKGNPKNIQGWKDLKRADIRIINREKGSGARVLLDEQLGLLGVNPADVVGYGDIVTDHYAAASQVSSGQADAGIGAQHAAHMGSVDFIPLIDEQYDIVVLKKNEQLLKAVKEILNSEDYKANLSHLNGYETKLTGKVILET,not soluble
9,GSAASSALKGLIQQFTTITGASESVGKHMLEACNNNLEMAVTMFLDGGG,soluble
10,MRLDRYLSNSGVGTRKEVKKLIKQGRVTVNGRVVLDPGHPVLENDAVALDGEVVRFHKKVYILFYKPSGYVTSTKDPHSETIMEFLPPLKGIFPVGRLDKDAEGLLIITNDGDFAHRVISPKWSVEKEYIVKVEGEVTEDKIEKLKNGVTLRDGFFAKAKRVEKLSNDTLKIVITEGKYHQIKRMTAAVGLKTVHLKRTRIGGLVLPDDMKPGEYRFLSEEEVKKVFEREDQKEDTPRS,not soluble
11,MGSDKIHHHHHHMELKSAEEKSLYYRNKIKEVIDEVGKVVVGQKYMINRLLIGICTGGHILLEGVPGLAKTLSVNTLAKTMDLDFHRIQFTPDLLPSDLIGTMIYNQHKGNFEVKKGPVFSNFILADEVNRSPAKVQSALLECMQEKQVTIGDTTYPLDNPFLVLATQNPVEQEGTYPLPEAQVDRFMMKIHLTYLDKESELEVMRRVSNMNFNYQVQKIVSKNDVLEIRNEINKVTISESLEKYIIELVFATRFPAEYGLEAEASYILYGASTRAAINLNRVAKAMAFFNNRDYVLPEDIKEVAYDILNHRIILNYEAEAEGISTRQIIETILRKVNITKA,not soluble
12,MAQHVKKPEWLKIRLGGNEKFTETKSIVEGHCLHTICTSGKCPNMGECWSRGTATFMIGGDICTRACRFCNTLTGRPKPLNEAEPTHVALSIKLMGLNHAVVTSVDRDDLPDYGAAHWVKTIQEIRRINSGVTLEVLIPDFKGRMDLVDMIIEASPDVISHNLETVRRLTPSVRSVATYDTSLAVLRHIAQSGKMPAKTGMMLGLGETEEEILELMDDALAAGVSVITIGQYLQPSRKNLPVVEYITPEQFEHLRLVGIEKGFRTIESAPLVRSSYHAERHL,not soluble
13,MIEMLLYEDTRMRAVEILRSLPIGNSGVSGLVQLAATLGASVEFRPSIPPFPESLSKKMNKTQKYTSTQMSQKFDNASHSPTK,not soluble
14,SGIVPQLQNIVSTVNLGCKLDLKTIALRARNAEYNPKRFAAVIMRIREPRTTALIFSSGKMVCTGAKSEEQSRLAARKYARVVQKLGFPAKFLDFKIQNMVGSCDVKFPIRLEGLVLTHQQFSSYEPELFPGLIYRMIKPRIVLLIFVSGKVVLTGAKVRAEIYEAFENIYPILKGFRKTT,soluble
15,SMQEKYRLVVVGGGGVGKSALTIQFIQSYFVTDYDPTIEDSYTKQCVIDDRAARLDILDTAGQEEFGAMREQYMRTGEGFLLVFSVTDRGSFEEIYKFQRQILRVKDRDEFPMILIGNKADLDHQRQVTQEEGQQLARQLKVTYMEASAKIRMNVDQAFHELVRVIRKFQEQ,soluble
16,GAMAFDWDAYLEETGSEAAPAKCFKQAQNPPNNDFKIGMKLEALDPRNVTSTCIATVVGVLGSRLRLRLDGSDSQNDFWRLVDSTEIHAIGHCEKNGGMLQPPLGFCMNASSWPGYLCKILNNAMVAPEEIFQPEPPEPEENLFKVGQKLEAVDKKNPQLICCATVDAIKDDQIHVTFDGWRGAFDYWCNYRSRDIFPAGWCARSCHPMQPPGHKSRMDSSSSKQRCPRPRYTVVAESEAMVPASPATAHFHPNCKGGPFINNSK,soluble
17,MEILSGRSSIIIDTDPINVYNQAHPPFSFPIPAKDVMSVASRPDLRNENLMVFSSIEGDLALLKSMNLPANVKIVYDNTDGSWVRYYPYAFYRSINAEELYAKIDDFVVLDIREEFELFSGFIEGSVNIPFSSIMQEPVELDKNRKYAVVCAHGNRSRVAVELLSSKGIEVYDVPGGMQKWLETGLPVSYEED,not soluble
18,MKGAARLAPGRPSPAPAWETSDPYAAALRSGHGPLYLRRTDGWLLPLEVERWCARADAVDLDVLDRCEGAVLDVGCGPGRLVAELAARGRTVLGIDVSEAAVTRTVRLGGQSLRRSVFEPLPGEGRWDTVLLMDGNVGIGGDPRTLLGRVAALLAPGGLLIAETAGSDIDERAHVQVVDVTDGDAAGSPFPWARIGTPALLGHARDTGWRPAAQWTSGERRFVALRSSRSASSSAEPPNSTAVTSSQRARKPSADSPVTPWLEHHHHHH,not soluble
19,MSLTALSALIEQKLQSLGTILCQSFPELSPEKIHEAIQQNSNHPELPVYQLGYAIAMSDFVEKVLQKYPHLVKQWWEKSPCFADCTAYIERLNKELANVHDETALYQTLRQFRNIEMAKLSFCQSLNLATVEEIFVQLSQLAESLIIAARDWLYHQACAEIGTPMDEQGNPQQLYILGMGKLGGFELNFSSDIDLIFTYPSQGETSVENTNARRSVDNGKFFTRLGQRLISALDEFTSDGFVYRTDMRLRPFGDSGVLVLSFSAMEQYYQDQGRDWERYAMIKGRVLGAQTKDPNVSKLKKMLRPFVYRRYIDFSVIQSLREMKGKIEREVRRRGLKDNIKLGAGGIREVEFIVQVFQLIRGGREINLQQHSLLKILPEITKLRLITEQQFHDLRESYIFLRRVENILQAINDQQTQTLPTDEIDQIRLVEACKTFTCLNENNQTIEKHYPIENWDDFYRTLQQKQEKVRAVFTQLIGDEQDESSQTDSQWQDFLEADFEDIEQTLLESSVSENNIDEVLEKLAQFKDGLNHRVIGSRGRDVLSHLMPTVLALIFEQENYRTLLPRILNIIEKISSRTTYLELLLENPRALQQVIELCAQSQLISEQLAHYPILLDELLNTEALRHPLPFTQYPAELHQYLLRLPPDDEEQLIDALRQFKQATLLKVAAADILGALPVMKVSDHLTYLAEAIIEVVVNLAWKQVSSRFGVPEHLQNNEKGFLVIGYGKLGGIELGYKSDLDLVFLYDAVESQTTGGKKVIDSNQFYLRLAQKIVSIFSINTSAGVLYEADMRLRPSGDAGLIGCSLSAFSHYQLNDAWTWEKQALVRARPVFGESSLKAKFEHIRQQVLSASRDIEQLKQDVVEMRKKMFAHLSHSKHSEFNLKTDRGGITDIEFIAQYLMLANAPKKPQLTKWSDNVRIFDDMAEAKIISQTDCDTLKQCYVDLRNTIHHLNLLGKSSVVEDSEFVKERSFIQAFWDRLFVSEGHHHHHH,soluble
20,MSLAHFSVLPPEINSLRMYLGAGSAPMLQAAAAWDGLAAELGTAASSFSSVTTGLTGQAWQGPASAAMAAAAAPYAGFLTTASAQAQLAAGQAKAVASVFEAAKAAIVPPAAVAANREAFLALIRSNWLGLNAPWIAAVESLYEEYWAADVAAMTGYHAGASQAAAQLPLPAGLQQFLNTLPNLGIGNQGNANLGGGNTGSGEGHHHHHH,not soluble
21,MSLKTMSDTSEIIFSNYGIYDLGDNLELLLPNTLIKFQRISDNAFSYFRENSEGQIIEKIIPVKSNDIKIELAPIRPLNHPAKRTNYVFLKLDKEIHLGENSAASIFVHCPIEIGIFLIYGDNHEPLDWITCNPLNSRFSLYGSPDTGTLCKYAEVSLATDYNDSVSYVNGVMHIVIENTLSFAQTISKVIFPITDNNLYYKDSKSIVDGIKIIMKKRAAVNIAEIKPTLVDTEWTQAPAWDNSIDSVHHMEMTLEEGHHHHHH,soluble

# Source: the DeepSol protein solubility set
